For one assay, the target named is J08 A.92RW020V1V2 (HIV-1). Description: SPR (BIAcore), mAb captured on anti-Fc surface, V1V2 protein injected as analyte, Synagis surface subtracted, global 1:1 Langmuir fit. On the technique in general: In SPR one partner is held on a chip, and binding of the other changes the refractive index at the surface.
The target in another assay is C.1086 V1V2 Tags (HIV-1). Description: ELISA, OD405 at 10 ug/ml. (In general: In an ELISA, binding on a coated surface is turned into a signal by an enzyme label.)
For the next assay, the target named is T1, SIV CPZ US-1 gp140CF (SIVcpz).
T1 construct: also called US-1 SIVCPZ gp140CF
T1 chain: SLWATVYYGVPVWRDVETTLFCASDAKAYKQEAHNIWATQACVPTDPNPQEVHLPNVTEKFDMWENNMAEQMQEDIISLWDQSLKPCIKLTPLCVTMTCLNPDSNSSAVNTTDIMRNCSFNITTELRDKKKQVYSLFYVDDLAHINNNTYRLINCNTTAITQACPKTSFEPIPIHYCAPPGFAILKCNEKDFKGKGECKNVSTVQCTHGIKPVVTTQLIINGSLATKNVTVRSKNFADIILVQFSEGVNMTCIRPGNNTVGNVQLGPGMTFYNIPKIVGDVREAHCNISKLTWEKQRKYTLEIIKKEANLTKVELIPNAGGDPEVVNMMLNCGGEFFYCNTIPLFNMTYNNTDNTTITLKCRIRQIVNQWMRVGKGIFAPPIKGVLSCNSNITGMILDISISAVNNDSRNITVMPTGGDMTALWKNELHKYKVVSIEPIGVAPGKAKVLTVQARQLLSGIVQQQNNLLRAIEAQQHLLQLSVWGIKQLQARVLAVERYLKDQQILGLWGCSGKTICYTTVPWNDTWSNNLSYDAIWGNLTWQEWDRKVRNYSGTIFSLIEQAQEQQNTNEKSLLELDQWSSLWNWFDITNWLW
Description: ELISA, OD405 at 10 ug/ml.

In another assay the target is D.9009SA V1/V2 tags. Description: ELISA, OD405 at 10 ug/ml.
Another assay deals with G.con gp140CF. Nature of the assay: ELISA, OD405 at 10 ug/ml.
The target of a further assay is Con 6 gp120. Nature of the assay: ELISA, OD405 at 10 ug/ml.
The next assay concerns the target C.CAP206 gp140CF.12 (HIV-1). Description: ELISA, OD405 at 10 ug/ml.
The target of another assay is A.Q23 V1V2 tags (HIV-1). Nature of the assay: ELISA, OD405 at 10 ug/ml.
For a further assay, the target named is T2, AE.A244 gp120 delta 11 (HIV-1).
T2 construct: also called E.A244gp120Δ11; AE.A244 Δ11 gp120
Description: ELISA, OD405 at 10 ug/ml.

The next assay deals with B.040 gp140C. Description: ELISA, OD405 at 10 ug/ml.
A further assay has as its target B.9021 gp140C (HIV-1). Nature of the assay: ELISA, OD405 at 10 ug/ml.
The next assay deals with T3, A.9004SS V1/V2 tags.
T3 V1V2 tags construct: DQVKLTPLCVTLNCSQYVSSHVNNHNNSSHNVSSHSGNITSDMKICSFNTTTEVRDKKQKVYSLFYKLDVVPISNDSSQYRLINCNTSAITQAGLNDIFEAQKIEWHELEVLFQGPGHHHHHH
Description: ELISA, OD405 at 10 ug/ml.

In another assay the target is AE.A244 V1V2 Tags (HIV-1). Nature of the assay: ELISA, OD405 at 10 ug/ml.
For a further assay, the target named is T4, AE.97CNG2XF gp140CF (HIV-1).
T4 construct: also called E.97CNGX2F gp140CF
Description: ELISA, OD405 at 10 ug/ml.

The target of a further assay is T5, gp70 B.CaseA2 V1/V2 (HIV-1 V1V2 on murine leukemia virus gp70).
T5 construct: also called B.gp70CaseA2 V1/V2; gp70 B.CaseAV1V2
T5 chain: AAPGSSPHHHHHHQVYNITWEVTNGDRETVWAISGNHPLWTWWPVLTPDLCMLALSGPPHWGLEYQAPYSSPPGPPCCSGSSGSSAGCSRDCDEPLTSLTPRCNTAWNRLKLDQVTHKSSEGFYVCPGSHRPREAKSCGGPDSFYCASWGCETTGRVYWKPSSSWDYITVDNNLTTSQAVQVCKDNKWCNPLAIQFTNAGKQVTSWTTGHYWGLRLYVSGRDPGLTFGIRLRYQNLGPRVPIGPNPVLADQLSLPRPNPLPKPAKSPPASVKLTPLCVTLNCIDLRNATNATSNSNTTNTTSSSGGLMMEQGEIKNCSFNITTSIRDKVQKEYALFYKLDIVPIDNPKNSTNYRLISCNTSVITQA
Nature of the assay: ELISA, OD405 at 10 ug/ml.

The target in a further assay is B.Case A2 V1/V2 tags. Description: ELISA, OD405 at 10 ug/ml.
For a further assay, the target named is T6, C.1086 gp140.
T6 construct: also called C.1086gp140C
Nature of the assay: ELISA, OD405 at 10 ug/ml.

In another assay the target is T7, gp70 C.1086 V1/V2 (HIV-1 V1V2 on murine leukemia virus gp70).
T7 construct: also called C.gp70 1086C V1V2; C.1086gp70V1V2
T7 chain: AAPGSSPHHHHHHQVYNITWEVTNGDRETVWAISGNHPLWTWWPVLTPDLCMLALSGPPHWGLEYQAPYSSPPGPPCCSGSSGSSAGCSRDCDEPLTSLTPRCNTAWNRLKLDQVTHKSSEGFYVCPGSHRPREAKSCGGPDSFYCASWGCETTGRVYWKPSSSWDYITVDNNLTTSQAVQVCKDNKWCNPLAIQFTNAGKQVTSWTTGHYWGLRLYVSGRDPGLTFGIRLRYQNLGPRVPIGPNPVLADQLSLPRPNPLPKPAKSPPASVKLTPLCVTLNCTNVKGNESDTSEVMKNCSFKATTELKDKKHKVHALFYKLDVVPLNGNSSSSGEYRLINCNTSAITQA
Description: ELISA, OD405 at 10 ug/ml.

The target in the next assay is T8, AE.92TH023 gp120 gD+ (HIV-1).
T8 construct: domain: gp120; also called AE.92TH023 gp12 gD+
Description: ELISA.

As a reminder, the Kd is the constant that tells how readily two partners part at equilibrium. A low value points to tighter binding. Broadly, the koff is a measure of how fast the partners let go of each other. High values mean fast dissociation, low ones slow dissociation. As a reminder, the kon is the rate constant with which the complex forms. Read a high kon as fast association. A word on the EC50: it is the concentration at which the effect is half-maximal. A high value points to a need for much substance.

B1: 697D (antibody, V domains shown)
VH: QVQLVQSGAEVKKPGSSVKVSCKASGGNFNTYTISWVRQAPGQGLEWMGRIIPIFGIVNPAQKFPGRVTINVDKSTNTAYMELSSLRSEDTAVYYCATSGVGLHFGYFDYWGQGTQVTVSS
VL: QSVLTQPPSVSGAPGQRVTISCTGSSSNIGAHYDVHWYQQLPGTAPKLLIYGNSNRPSGVPDRFSGSKSGTSASLAITGLQAEDEADYYCQSYDSSLSGYVFGTGTKVTVL
notes: also called mAb 697D; V2 conformational mAb 697D
For B1, in the assay with J08 A.92RW020V1V2, the Kd turned out to be 57.5 nM, the koff was found to be 0.008 s⁻¹ and the kon came out at 140000 M⁻¹ s⁻¹.

B2: PG9 reverted unmutated ancestor antibody (antibody, V domains shown)
VH: QVQLVESGGGVVQPGRSLRLSCAASGFTFSSYGMHWVRQAPGKGLEWVAVISYDGSNKYYADSVKGRFTISRDNSKNTLYLQMNSLRAEDTAVYYCAREAGGPDYRNGYNYYDFWSGYYNYYYMDVWGKGTTVTVSS
VL: QSALTQPASVSGSPGQSITISCTGTSSDVGSYNLVSWYQQHPGKAPKLMIYEVSKRPSGVSNRFSGSKSGNTASLTISGLQAEDEADYYCCSLTSTRRWVFGGGTKLTVL
notes: also called PG9 RUA; PG9_RUA
Take B2: the binding result in the assay with C.1086 V1V2 Tags, with SIV CPZ US-1 gp140CF, with D.9009SA V1/V2 tags, with G.con gp140CF, with Con 6 gp120 and with C.CAP206 gp140CF.12 was “no binding (tested: 10 ug/ml)” each time. Also, the binding result with A.Q23 V1V2 tags, with AE.A244 gp120 delta 11, with B.040 gp140C, with B.9021 gp140C, in the assay with A.9004SS V1/V2 tags and with AE.A244 V1V2 Tags was “no binding (tested: 10 ug/ml)” throughout. The binding result with AE.97CNG2XF gp140CF, in the assay with gp70 B.CaseA2 V1/V2, in the assay with B.Case A2 V1/V2 tags, with C.1086 gp140 and with gp70 C.1086 V1/V2 was “no binding (tested: 10 ug/ml)” throughout.

B3: CH59 (antibody, V domains shown)
VH: EVQLVESGGGLVQPGRSLRLSCAASGFTFDDGAMHWVRQAPGKGLEWVSGISWNSNIIAYADSVKGRFTISRDNAKNSLYLEMNSLRVEDTALYYCAKDSPRGELPLNYWGQGTLVTVSS
VL: SYELTQPPSVSVSPGQTARITCSGDALPKNYAYWYQQKSGQAPVLVIYEDSKRPSGIPERFSGSSSGTMATLTISGAQVEDEADYYCYSTDSSGNHRVFGGGTKLTVL
notes: also called mAb CH59
In turn, B3 registered an EC50 in the assay with AE.92TH023 gp120 gD+ of 0.023 µg/mL.

For the origin of these results see US9988424 (DUKE UNIVERSITY, dated 2018).
